According to paper PMC3965549, “Evidence for LINC1-SUN Associations at the Plant Nuclear Periphery” (PLoS ONE, 2014):

B1: AtSUN1-CFP (natural protein, Arabidopsis, UniProt Q9FF75 1-471, looked up)
chain: MSASTVSITANTAAATRRTPILAGEKKSNFDYPQSESLANGGVGEAGGTSRDLSRGEATLDRSQGQDLGPVTRRSVSAATGTNTTATQRRTRKVATPKSEKARWKTVVRIFAKQLGALLIIVGLIQLTRKMILKASSPSSPISSYETEMAFSGLESRIAEVDGLVKATTNSMQVQVELLDKKMEREAKVLRQEIERKASAFQSELKKIESRTESLEKSVDEVNAKPWVTKDELERIYEELKKGNVDDSAFSEISIDELRAYARDIMEKEIEKHAADGLGRVDYALASGGAFVMEHSDPYLVGKGSSWFATTMRRAHTNAVKMLSPSFGEPGQCFPLKGSEGYVQIRLRGPIIPEAFTLEHVAKSVAYDRSSAPKDCRVSGSLQGPESSAETENMQLLTEFTYDLDRSNAQTFNILESSSSGLIDTVRLDFTSNHGSDSHTCIYRFRVHGRAPDPVPVVGTNLDQDSSPESE
notes: AtSUN1, Sad1/UNC84 domain protein 1 of Arabidopsis; also called full length AtSUN1; source: Nicotiana benthamiana leaves, transient expression by A. tumefaciens GV3101 infiltration (pK7CWG2), in living cells; not shown: CFP, C-terminal, kept
B2: AtSUN2-CFP (natural protein, Arabidopsis, UniProt Q9SG79 1-455, looked up)
chain: MSASTVSITASPRTIRRTPVLSGEKKSNFDFPPSESHANAAIGESSAGTNKDLIRAEAAGERSNTYDVGPVTRKSGSTATGTNTTTTQRRTRKSQGNKIDRGKWKTVVRVFAKQFGALLLLVGLIQLIRKLTLKDSSLSSSNFPIETEMVLSELESRISAVDGLVKTTTKMMQVQVEFLDKKMDSESRALRQTIDSTSSVLHSELKKVESKTERLQVSVDELNAKPLVSREELERVYEELKKGKVGDSDVNIDKLRAYARDIVEKEIGKHVADGLGRVDYALASGGAFVMGHSDPFLVGNGRNWFGTSRRRVHSKAVKMLTPSFGEPGQCFPLKGSNGYVLVRLRAPIIPEAVTLEHVSKAVAYDRSSAPKDCRVSGWLGDIDMETETMPLLTEFSYDLDRSNAQTFDIADSAHSGLVNTVRLDFNSNHGSSSHTCIYRFRVHGRELDSVSVAHA
notes: AtSUN2, Sad1/UNC84 domain protein 2 of Arabidopsis; also called full length AtSUN2; source: Nicotiana benthamiana leaves, transient expression by A. tumefaciens GV3101 infiltration (pK7CWG2), in living cells; not shown: CFP, C-terminal, kept
B3: AtSUN2^1–106-CFP (domain or fragment, Arabidopsis, UniProt Q9SG79 1-106, looked up)
chain: MSASTVSITASPRTIRRTPVLSGEKKSNFDFPPSESHANAAIGESSAGTNKDLIRAEAAGERSNTYDVGPVTRKSGSTATGTNTTTTQRRTRKSQGNKIDRGKWKT
notes: N-terminus of AtSUN2 of Arabidopsis: the first 318 bp (106 aa) of the CDS; also called SUN2 N-terminus; AtSUN2 N-terminus; source: Nicotiana benthamiana leaves, transient expression by A. tumefaciens GV3101 infiltration (pK7CWG2), in living cells; not shown: CFP, C-terminal, kept

Target: T1, AtLINC1-YFP (Arabidopsis, UniProt F4HRT5 1-1132)
T1 construct: Little Nuclei 1 (LINC1) of Arabidopsis; also called Little Nuclei 1
T1 sequence (looked up): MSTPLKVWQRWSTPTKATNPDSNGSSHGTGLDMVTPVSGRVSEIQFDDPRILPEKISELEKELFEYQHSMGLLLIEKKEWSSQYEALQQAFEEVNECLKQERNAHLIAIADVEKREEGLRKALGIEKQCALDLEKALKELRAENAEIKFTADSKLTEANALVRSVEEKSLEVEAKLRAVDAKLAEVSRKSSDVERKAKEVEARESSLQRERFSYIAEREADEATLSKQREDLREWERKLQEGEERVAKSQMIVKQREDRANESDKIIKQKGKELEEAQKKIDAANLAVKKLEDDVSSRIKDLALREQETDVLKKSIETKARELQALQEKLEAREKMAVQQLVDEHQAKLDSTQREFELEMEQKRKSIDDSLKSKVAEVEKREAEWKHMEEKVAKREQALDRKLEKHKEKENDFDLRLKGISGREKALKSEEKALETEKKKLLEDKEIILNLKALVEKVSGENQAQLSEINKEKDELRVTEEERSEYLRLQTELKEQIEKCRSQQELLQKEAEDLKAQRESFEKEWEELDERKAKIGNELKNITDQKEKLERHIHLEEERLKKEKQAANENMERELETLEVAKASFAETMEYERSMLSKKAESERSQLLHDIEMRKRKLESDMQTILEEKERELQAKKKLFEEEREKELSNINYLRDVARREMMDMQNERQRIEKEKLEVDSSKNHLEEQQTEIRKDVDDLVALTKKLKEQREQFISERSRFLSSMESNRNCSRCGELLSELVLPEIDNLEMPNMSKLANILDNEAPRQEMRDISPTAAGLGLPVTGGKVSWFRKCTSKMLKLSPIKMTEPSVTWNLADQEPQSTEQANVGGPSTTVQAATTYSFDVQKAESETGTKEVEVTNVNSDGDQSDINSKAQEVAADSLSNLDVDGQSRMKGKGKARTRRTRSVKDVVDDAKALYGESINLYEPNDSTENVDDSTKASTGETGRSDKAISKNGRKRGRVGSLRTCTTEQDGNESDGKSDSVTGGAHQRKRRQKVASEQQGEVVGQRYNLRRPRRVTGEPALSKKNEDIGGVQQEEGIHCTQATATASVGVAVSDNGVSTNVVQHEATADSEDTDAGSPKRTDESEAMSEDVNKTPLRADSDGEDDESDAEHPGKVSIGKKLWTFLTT
Test: FRET or BRET; acceptor photobleaching FRET (apFRET) in N. benthamiana leaf cells 3 days after infiltration; CFP donor on the SUN constructs, YFP acceptor on AtLINC1; YFP bleached in a constant ROI; pre-bleach fluorescence as internal negative control; about 35 NE per sample
Settings: partners not purified

Binder	FRET efficiency (EF)
B1	1.85%
B2	1.9%
B3	1.29%
